According to US9987242B2, “Treatment of Levodopa-induced Dyskinesias” (NORTHWESTERN UNIVERSITY, priority 2015, dated 2018):
“Also recorded” adds a separate entry of the source.

Key:
[1] = system: primate dyskinetic scores; experiment: Primate dyskinesia scores; format: in vivo; settings: with L-DOPA; n=4
Source text: FIG. 12. Plot of sum of primate dyskinesia scores (median) as a function of time (Fr=11.64, n=4; p<0.01, Friedman's test).
(§1) FIG. 18. […] Data are represented as median.

PD disability = experiment: Primate PD disability (anti-parkinsonian effect of L-DOPA); format: in vivo; settings: with L-DOPA; n=4; p>0.05
Source text: as §1

[2] = system: dSPN glutamatergic synapses; experiment: Spike-timing-dependent LTD induction (post-pre pairing) in dSPNs, ex vivo corticostriatal slices, perforated-patch or whole-cell recording; format: cell-based, mice
Source text: Male C57Bl/6 and FVB mice expressing tdTomato or eGFP under control of either the Drd1 or Drd2 receptor regulatory elements were used. All the mice used for the study were hemizygous for these transgenes. For some experiments, D1-tdTomato BAC mice were crossed with a transgenic line expressing Cre recombinase under control of the ChAT promoter. All mice were 8-10 weeks of age before stereotaxic surgery. Animal use procedures were reviewed and approved by the Northwestern Institutional Animal Care and Use Committee.
Slices were then transferred to a holding chamber containing aCSF. After an incubation period at 34° C. for 30 min, the slices were then kept in the holding chamber at the room temperature for another 30 min before use.
Individual slices were transferred to a recording chamber and were continuously perfused (2-3 ml min^−1) with aCSF for the duration of the experiment. Experiments were performed in the dorsolateral striatum at elevated temperature (30-31° C.).
All the recordings were made using a MultiClamp 700 A amplifier, and signals were filtered at 2 kHz and digitized at 10 kHz. Data were excluded when the series resistance changed >20% over the time course of the experiment. […] Capacitance current was continuously monitored during perforation by applying a 5-10 mV pulse from a holding potential of −70 mV. The amplifier bridge circuit was adjusted to compensate for series resistance and continuously monitored during recordings. Electrode capacitance was also compensated. Data were excluded when the input resistance (Ri) changed >20% over the time course of the experiment.
Data analysis was conducted with Igor Pro 6 (Wavemetrics, Lake Oswego, Oreg.) and Clampfit 9 (Molecular Devices). EPSP amplitude was calculated from 50-60 sweeps immediately before the start of induction and 20-30 min after the end of induction. The change in EPSP amplitude was calculated by averaging EPSP values after the induction and normalized to the average baseline EPSP amplitude. Compiled data were expressed as mean±s.e.m. Statistical tests were performed using Excel (Microsoft, Redmond, Wash.) and SigmaStat (Systat, San Jose, Calif.). Non-parametric Mann-Whitney or Wilcoxon tests were used to assess the experiment results, using a probability threshold of 0.05.
(§2) To determine if M4Rs were modulating synaptic plasticity, a spike-timing-dependent plasticity (STDP) paradigm was used. […] Once identified, neurons were monitored and controlled with perforated-patch recording to preserve intracellular signaling mechanisms and to allow stable, long-term monitoring of synaptic strength (FIG. 1A).
Synaptic plasticity was induced by pairing local stimulation of glutamatergic afferent fibers with postsynaptic spikes evoked by short bursts of intracellular current injection that were repeated at 5 Hz (FIGS. 1B, 4A).

iSPNs = experiment: Spike-timing-dependent LTD induction (post-pre pairing) in iSPNs, ex vivo slices; format: cell-based, mice; settings: MT3 100 nM
Description: Mice were deeply anesthetized intraperitoneally with a mixture of ketamine (50 mg kg−1) and xylazine (4 mg kg−1) and perfused transcardially with 5-10 ml of ice-cold artificial CSF (aCSF) comprising (in mM): 125 NaCl, 2.5 KCl, 1.25 NaH2PO4, 2.0 CaCl2, 1.0 MgCl2, 26 NaHCO3 and 10 glucose (305 mOsm l^−1). Parasagittal corticostriatal slices (250 μm) were cut in ice-cold external solution containing (mM) 110 choline chloride, 26 NaHCO3, 1.25 NaH2PO4, 2.5 KCl, 0.5 CaCl2, 7 MgCl2, 11.6 sodium ascorbate, 3.1 sodium pyruvate and 5 glucose (305 mOsm l^−1). Slices were then transferred to a holding chamber containing aCSF. After an incubation period at 34° C. for 30 min, the slices were then kept in the holding chamber at the room temperature for another 30 min before use.
as §2

Molecule	primate dyskinetic scores [1]	anti-parkinsonian effect of L-DOPA on PD disability (PD disability)	LTD induction in dSPNs ([2]; MT3 100 nM with CNO)	LTD induction in dSPNs (EPSP amplitude) ([2]; MT3 100 nM with physostigmine 10 μM + VU10010 5 μM, 20 repetitions)	LTD induction in dSPNs (EPSP amplitude) ([2]; post-pre pairing, MT3 100 nM along with SCH23390)	LTD induction in iSPNs (iSPNs)
Cc1nnc2sc(C(=O)NCc3ccc(-c4cccnc4F)cc3)c(N)c2c1C [VU0476406]	reduction in primate dyskinetic scores	did not occur at the expense of anti-parkinsonian effect of L-DOPA	–	–	–	–
muscarinic toxin 3 (protein, UniProt P81031 1-65, looked up) Muscarinic toxin 3: LTCVTKNTIFGITTENCPAGQNLCFKRWHYVIPRYTEITRGCAATCPIPENYDSIHCCKTDKCNE	–	–	LTD was blunted	induction was blunted	blocked induction of LTD; also recorded: LTD was disrupted	LTD was induced
